This is an account of results in article PMC10815899, “Glyceraldehyde 3-Phosphate Dehydrogenase on the Surface of Candida albicans and Nakaseomyces glabratus Cells—A Moonlighting Protein That Binds Human Vitronectin and Plasminogen and Can Adsorb to Pathogenic Fungal Cells via Major Adhesins Als3 and Epa6” (International Journal of Molecular Sciences, 2024).

“And” between values parts separate entries of the source, which are not always exact repeats. Equal values may be shown once.

Broadly, the Kd is the free concentration of one partner at which half of the binding sites on the other are occupied at equilibrium, for simple one-to-one binding. Broadly, the stoichiometry N is a count of units in the complex or per binding partner.

The target of data set [1] is T1, Eap1 (epithelial adhesin protein 1) on S. cerevisiae cells (C. albicans, UniProt G1UBC2 19-632).
T1 construct: Eap1 adhesin of C. albicans presented on the surface of S. cerevisiae; source: S. cerevisiae, overexpressed and surface-presented, on cells
T1 sequence: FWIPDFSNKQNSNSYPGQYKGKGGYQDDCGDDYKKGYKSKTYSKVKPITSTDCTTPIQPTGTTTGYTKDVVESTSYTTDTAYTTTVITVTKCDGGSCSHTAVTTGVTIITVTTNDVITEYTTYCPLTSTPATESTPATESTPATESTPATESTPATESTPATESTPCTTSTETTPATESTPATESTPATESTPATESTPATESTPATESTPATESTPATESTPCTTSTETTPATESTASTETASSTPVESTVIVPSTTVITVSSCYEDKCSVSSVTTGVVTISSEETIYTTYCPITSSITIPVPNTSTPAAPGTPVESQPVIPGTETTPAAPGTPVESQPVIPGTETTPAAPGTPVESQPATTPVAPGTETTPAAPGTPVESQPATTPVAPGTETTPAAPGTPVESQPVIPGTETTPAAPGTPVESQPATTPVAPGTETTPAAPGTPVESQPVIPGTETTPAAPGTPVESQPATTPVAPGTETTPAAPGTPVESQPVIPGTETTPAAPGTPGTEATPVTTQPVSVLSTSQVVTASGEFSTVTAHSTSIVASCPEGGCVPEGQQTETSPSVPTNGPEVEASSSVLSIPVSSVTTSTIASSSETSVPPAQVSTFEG
Kind of data set: whole-cell binding assay (biotin-labeled protein, SA-HRP/TMB); S. cerevisiae cells presenting the adhesin (3 × 10^7 cells per tube); biotin-labeled CaGAPDH 0–400 nM, 1 h at 37 °C; one-site specific binding model, estimated dissociation constants. The note with it: one partner purified.

The target in data set [2] is T2, Hwp1 (hyphal wall protein 1) on S. cerevisiae cells (C. albicans, UniProt P46593 28-613).
T2 construct: Hyphal wall protein 1 of C. albicans presented on the surface of S. cerevisiae; source: S. cerevisiae, overexpressed and surface-presented, on cells
T2 sequence: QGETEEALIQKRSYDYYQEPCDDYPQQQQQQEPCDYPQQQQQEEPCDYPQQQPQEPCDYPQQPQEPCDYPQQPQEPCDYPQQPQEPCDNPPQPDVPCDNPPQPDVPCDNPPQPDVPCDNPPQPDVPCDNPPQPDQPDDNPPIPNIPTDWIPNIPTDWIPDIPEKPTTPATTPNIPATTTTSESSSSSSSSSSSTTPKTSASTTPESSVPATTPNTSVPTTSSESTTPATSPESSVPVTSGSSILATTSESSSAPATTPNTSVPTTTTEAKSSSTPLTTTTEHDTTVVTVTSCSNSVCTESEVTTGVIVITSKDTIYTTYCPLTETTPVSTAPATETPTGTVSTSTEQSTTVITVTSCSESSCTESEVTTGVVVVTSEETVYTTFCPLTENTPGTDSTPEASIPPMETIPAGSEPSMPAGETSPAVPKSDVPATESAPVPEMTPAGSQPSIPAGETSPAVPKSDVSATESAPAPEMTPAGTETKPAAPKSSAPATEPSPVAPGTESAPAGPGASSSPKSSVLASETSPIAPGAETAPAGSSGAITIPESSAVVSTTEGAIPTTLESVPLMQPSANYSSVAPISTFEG
The description is as above. The note with it: one partner purified.

Data set [3] concerns the target T3, agglutinin-like sequence protein 3 (full-length Als3) on S. cerevisiae cells (C. albicans, UniProt Q59L12 18-1134).
T3 construct: source: S. cerevisiae, overexpressed and surface-presented, on cells
T3 sequence: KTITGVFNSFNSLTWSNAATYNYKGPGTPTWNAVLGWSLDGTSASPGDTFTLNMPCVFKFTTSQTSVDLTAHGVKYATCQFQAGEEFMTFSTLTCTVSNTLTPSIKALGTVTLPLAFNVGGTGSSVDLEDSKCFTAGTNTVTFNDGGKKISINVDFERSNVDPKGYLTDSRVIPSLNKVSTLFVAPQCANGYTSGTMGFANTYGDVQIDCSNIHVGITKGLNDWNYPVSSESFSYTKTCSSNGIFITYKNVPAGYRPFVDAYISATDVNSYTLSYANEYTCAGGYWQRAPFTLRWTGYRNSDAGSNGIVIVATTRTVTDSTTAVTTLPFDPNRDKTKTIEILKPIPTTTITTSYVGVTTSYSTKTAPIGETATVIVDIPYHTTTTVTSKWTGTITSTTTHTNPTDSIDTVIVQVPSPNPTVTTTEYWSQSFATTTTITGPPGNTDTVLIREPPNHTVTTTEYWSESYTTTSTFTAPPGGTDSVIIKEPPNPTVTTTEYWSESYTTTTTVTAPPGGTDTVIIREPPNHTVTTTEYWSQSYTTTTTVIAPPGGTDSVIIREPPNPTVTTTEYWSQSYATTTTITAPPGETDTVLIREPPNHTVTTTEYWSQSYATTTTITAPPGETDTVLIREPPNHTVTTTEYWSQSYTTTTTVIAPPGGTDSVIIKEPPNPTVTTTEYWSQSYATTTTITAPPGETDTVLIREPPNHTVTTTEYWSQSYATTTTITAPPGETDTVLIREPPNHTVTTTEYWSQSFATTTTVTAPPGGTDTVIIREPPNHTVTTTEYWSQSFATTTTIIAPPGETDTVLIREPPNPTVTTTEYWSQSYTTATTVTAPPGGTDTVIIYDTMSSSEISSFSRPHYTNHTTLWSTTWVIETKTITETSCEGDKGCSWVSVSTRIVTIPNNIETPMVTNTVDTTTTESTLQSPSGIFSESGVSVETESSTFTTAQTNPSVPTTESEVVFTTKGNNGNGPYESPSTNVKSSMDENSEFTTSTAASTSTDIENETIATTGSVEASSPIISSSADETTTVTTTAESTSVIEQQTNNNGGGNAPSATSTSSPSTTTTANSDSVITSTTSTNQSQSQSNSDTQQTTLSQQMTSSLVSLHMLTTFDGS
The data set is described as above. The note with it: one partner purified.

Data set [4] deals with the molecule itself. Kind of data set: SEC; Superdex 200 HR 10/50, calibrated with molecular mass standards, 0.5 mL/min; buffer 20 mM Tris-HCl pH 6.7 (methods) or 50 mM NaH2PO4, 150 mM NaCl pH 7.0.

B1: recombinant Candida albicans glyceraldehyde 3-phosphate dehydrogenase (enzyme, C. albicans, UniProt Q5ADM7 1-335, looked up)
chain: MAIKIGINGFGRIGRLVLRVALGRKDIEVVAVNDPFIAPDYAAYMFKYDSTHGRYKGEVTASGDDLVIDGHKIKVFQERDPANIPWGKSGVDYVIESTGVFTKLEGAQKHIDAGAKKVIITAPSADAPMFVVGVNEDKYTPDLKIISNASCTTNCLAPLAKVVNDTFGIEEGLMTTVHSITATQKTVDGPSHKDWRGGRTASGNIIPSSTGAAKAVGKVIPELNGKLTGMSLRVPTTDVSVVDLTVRLKKAASYEEIAQAIKKASEGPLKGVLGYTEDAVVSTDFLGSSYSSIFDEKAGILLSPTFVKLISWYDNEYGYSTRVVDLLEHVAKASA
modifications: biotin (NHS-biotin) in the microplate and yeast-cell binding assays; Alexa Fluor 647 in flow cytometry
notes: no tag (pLATE11); By gel filtration predominantly a tetramer, with marked proportions of dimers and monomers; The forward primer carries ATGATG (the vector adapter's ATG and the gene's own), so an extra N-terminal Met may be present; also called CaGAPDH; GAPDH; source: E. coli Rosetta 2 (DE3), pLATE11, purified (ammonium sulfate fractionation, ResourceQ)
Consider B1, for which the results for the dissociation constant (Kd) in data set [1], in data set [2] and in data set [3] were 1250 nM, 715 nM and 95.9 nM, respectively. Moreover, the “stoichiometry N” value in data set [4] is 4 and 2.
